Holding throughout (test): cell_activity
Series [1] has as its system GmUbi3_T01.1 Right TALEN (synthetic construct). The note with it: pair with P1; soybean protoplasts, raw 0.72%; full site SEQ 25.
Series [2] relates to GmUbi3_T02.1 Right TALEN (synthetic construct). The settings on record: pair with P3; soybean protoplasts, raw 1.70%; full site SEQ 26.
Series [3] deals with GmUbi3_T02.1 Left TALEN (synthetic construct). The note with it: pair with P4; soybean protoplasts, raw 1.70%; full site SEQ 26.
Series [4] has as its system GmUbi3_T03.1 Right TALEN (synthetic construct). The note with it: pair with P5; soybean protoplasts, raw 4.98%; full site SEQ 27.
Series [5] deals with GmUbi3_T03.1 Left TALEN (synthetic construct). The note with it: pair with P6; soybean protoplasts, raw 4.98%; full site SEQ 27.
Series [6] has as its system GmUbi3_T01.1 Left TALEN (synthetic construct). The note with it: pair with P2; soybean protoplasts, raw 0.72%; full site SEQ 25.

Sequence “CCAACATTACACAACT (double strand) [GmUbi3_T1 right half-site]” came in with an activity (% normalized mutation frequency) in series [1] of 0.91.
As to “CCTTCACACAACTCAT (double strand) [GmUbi3_T2 right half-site]”, the activity (% normalized mutation frequency) in series [2] was determined as 2.76.
Regarding “CTTCCATGCTTGTCAT (double strand) [GmUbi3_T2 left half-site]”, the activity (% normalized mutation frequency) in series [3] was found to be 2.76.
“GCCTTGAGCTAGTTGT (double strand) [GmUbi3_T3 right half-site]” showed an activity (% normalized mutation frequency) in series [4] of 8.12.
In series [5], “TCATCAACTGTGGAGT (double strand) [GmUbi3_T3 left half-site]” displayed an activity (% normalized mutation frequency) of 8.12.
“TGTCCTCCGTCTCCGT (double strand) [GmUbi3_T1 left half-site]”: the activity (% normalized mutation frequency) in series [6] is 0.91.

The values are drawn from patent US20190359992.
